According to the supplement of paper PMC9732359:
± gives the uncertainty stated by the source.

Assay: protein stability index of a GFP-peptide fusion (yeast GPS) (PSI 1-4); higher = more stable; sorted into four equal gates, so the index is relative within each strain
Summary of the method: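 Plasmids in a pooled yeast library fused tiled 17-residue yeast protein peptides downstream of GFP and also expressed Cherry. Mid-log cultures grown without leucine were sorted into four equal gates by GFP/Cherry fluorescence ratio. Each gate's plasmids were PCR-amplified and Illumina-sequenced, and reads were matched to strains by barcodes. The protein stability index is derived by multiplying each gate's read frequency by its gate number and summing the results.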

KDRYINGDKKVDIYSLP [YMR129W/POM152]
protein stability index (doa10∆): 3.15 ± 0.091
protein stability index (pdr5∆): 2.77 ± 0.094
protein stability index (san1∆): 3.03 ± 0.042
protein stability index (ubr1∆): 3.23 ± 0.069

NGAFQNSSNLSYNNTGI [RRP4]
protein stability index (doa10∆): 2.58 ± 0.069
protein stability index (pdr5∆): 2.85 ± 0.053
protein stability index (san1∆): 2.98 ± 0.045
protein stability index (ubr1∆): 2.84 ± 0.055

ESGIKPYFEQKIQETEL [RPT6]
protein stability index (doa10∆): 2.93 ± 0.13
protein stability index (pdr5∆): 3.24 ± 0.14
protein stability index (san1∆): 2.64 ± 0.061
protein stability index (ubr1∆): 3.23 ± 0.094

ETSCDNYHPMNIDETSD [SMC4]
protein stability index (doa10∆): 3.02 ± 0.064
protein stability index (pdr5∆): 3.16 ± 0.052
protein stability index (san1∆): 3.15 ± 0.041
protein stability index (ubr1∆): 3.17 ± 0.051

INQINEAHPTKVKNFGV [RPL20A]
protein stability index (doa10∆): 3.04 ± 0.074
protein stability index (pdr5∆): 2.93 ± 0.049
protein stability index (san1∆): 3.117 ± 0.031
protein stability index (ubr1∆): 2.85 ± 0.038

DKIHARARGPMQVLTRQ [RPB2]
protein stability index (doa10∆): 3.16 ± 0.13
protein stability index (pdr5∆): 3.22 ± 0.12
protein stability index (san1∆): 2.97 ± 0.09
protein stability index (ubr1∆): 3.21 ± 0.19

VEISLVNGAKNLVVSGP [FAS1]
protein stability index (doa10∆): 2.76 ± 0.15
protein stability index (pdr5∆): 2.6 ± 0.1
protein stability index (san1∆): 2.3 ± 0.1
protein stability index (ubr1∆): 2.51 ± 0.21

VKEEYDIWQSRDQGNDS [YIL149C/MLP2]
protein stability index (pdr5∆): 3.5 ± 0.19
protein stability index (san1∆): 3.33 ± 0.074
protein stability index (ubr1∆): 3.34 ± 0.11

NNRQLPYLVANVVEVMD [RPT5]
protein stability index (doa10∆): 2.4 ± 0.11
protein stability index (pdr5∆): 2.78 ± 0.07
protein stability index (san1∆): 2.58 ± 0.14
protein stability index (ubr1∆): 2.71 ± 0.074

VEQDEGQCRTELEGSFN [YCS4]
protein stability index (doa10∆): 3.38 ± 0.081
protein stability index (pdr5∆): 3.48 ± 0.098
protein stability index (san1∆): 3.12 ± 0.14
protein stability index (ubr1∆): 3.49 ± 0.067

KAGVEAISQSLRDESLT [PRE5]
protein stability index (doa10∆): 3.05 ± 0.079
protein stability index (pdr5∆): 3.09 ± 0.082
protein stability index (san1∆): 3.37 ± 0.082
protein stability index (ubr1∆): 3.07 ± 0.067

ISLSVHTLALEFVNGGK [RRP46]
protein stability index (doa10∆): 2.49 ± 0.1
protein stability index (pdr5∆): 2.79 ± 0.068
protein stability index (san1∆): 2.06 ± 0.08
protein stability index (ubr1∆): 2.66 ± 0.079

ATASAIAATAVASLVLA [RPL4A]
protein stability index (doa10∆): 2.37 ± 0.1
protein stability index (pdr5∆): 1.78 ± 0.071
protein stability index (san1∆): 1.91 ± 0.17
protein stability index (ubr1∆): 1.88 ± 0.082

AFVEFGASVIAGGQRIV [SWP82]
protein stability index (doa10∆): 2.21 ± 0.13
protein stability index (pdr5∆): 2.35 ± 0.1
protein stability index (san1∆): 2.02 ± 0.1
protein stability index (ubr1∆): 2.07 ± 0.085

ATALQTCAGGRLFNVVV [SMC2]
protein stability index (doa10∆): 2.63 ± 0.12
protein stability index (pdr5∆): 2.9 ± 0.13
protein stability index (san1∆): 3.13 ± 0.15
protein stability index (ubr1∆): 2.12 ± 0.15

FEDQVTNILTKVDINAD [PRP28]
protein stability index (doa10∆): 3.19 ± 0.2
protein stability index (san1∆): 3.2 ± 0.18

QETQHGNITRGLAVGLA [RPN2]
protein stability index (doa10∆): 3.08 ± 0.074
protein stability index (pdr5∆): 2.55 ± 0.096
protein stability index (san1∆): 2.73 ± 0.062
protein stability index (ubr1∆): 2.88 ± 0.04

IHNTKLPAYSGEIGDFF [POP1]
protein stability index (doa10∆): 3.07 ± 0.06
protein stability index (pdr5∆): 3.1 ± 0.062
protein stability index (san1∆): 3.1 ± 0.047
protein stability index (ubr1∆): 3.02 ± 0.06

SSQFVRLASEPGIISIT [YMR129W/POM152]
protein stability index (doa10∆): 2.04 ± 0.094
protein stability index (pdr5∆): 2.14 ± 0.062
protein stability index (san1∆): 1.99 ± 0.12
protein stability index (ubr1∆): 1.78 ± 0.04

YLIKLLGFEVKDQALIG [SIR2]
protein stability index (doa10∆): 1.92 ± 0.061
protein stability index (pdr5∆): 2.08 ± 0.06
protein stability index (san1∆): 2.1 ± 0.061
protein stability index (ubr1∆): 2.73 ± 0.087

VVPDLGHLNGHTPTIAS [SSN2]
protein stability index (doa10∆): 2.15 ± 0.045
protein stability index (pdr5∆): 2.65 ± 0.055
protein stability index (san1∆): 2.69 ± 0.048
protein stability index (ubr1∆): 2.59 ± 0.038

ISTSFCFICLLHLANEH [BRN1]
protein stability index (doa10∆): 1.67 ± 0.12
protein stability index (pdr5∆): 1.21 ± 0.13
protein stability index (ubr1∆): 1.35 ± 0.13

LLKYSNETKKRNFLETV [RPL1A]
protein stability index (doa10∆): 3 ± 0.25
protein stability index (pdr5∆): 2.72 ± 0.23

LTYLYEMKNIRGPYLVI [SNF2]
protein stability index (doa10∆): 1.22 ± 0.059
protein stability index (pdr5∆): 1.32 ± 0.04
protein stability index (san1∆): 1.27 ± 0.098
protein stability index (ubr1∆): 1.22 ± 0.042

FIKFKLIQQVPPGLDAL [CDC53]
protein stability index (doa10∆): 2.29 ± 0.067
protein stability index (pdr5∆): 2.13 ± 0.11
protein stability index (san1∆): 2.23 ± 0.13
protein stability index (ubr1∆): 2.27 ± 0.095

ISSLMFDEEFDPFKTSS [IRR1]
protein stability index (san1∆): 2.7 ± 0.14
protein stability index (ubr1∆): 2.99 ± 0.26

ISTAKAWGALITTFVKR [YML103C/NUP188]
protein stability index (doa10∆): 1.82 ± 0.051
protein stability index (pdr5∆): 2.22 ± 0.051
protein stability index (san1∆): 1.64 ± 0.063
protein stability index (ubr1∆): 1.66 ± 0.058

LSSYQKKIIKCDEHMGL [PRE5]
protein stability index (doa10∆): 2.19 ± 0.1
protein stability index (pdr5∆): 2.37 ± 0.13
protein stability index (san1∆): 2.19 ± 0.21
protein stability index (ubr1∆): 2.71 ± 0.22

SKLKLKNLLRKNLSIDE [ECM29]
protein stability index (doa10∆): 1.71 ± 0.086
protein stability index (pdr5∆): 1.47 ± 0.054
protein stability index (san1∆): 1.46 ± 0.098
protein stability index (ubr1∆): 1.76 ± 0.062

NEEGDWSCIVVENWIID [ITC1]
protein stability index (doa10∆): 2.38 ± 0.074
protein stability index (pdr5∆): 2.48 ± 0.082
protein stability index (san1∆): 2.68 ± 0.12
protein stability index (ubr1∆): 2.95 ± 0.11

KDEEIEKLLQQDREITN [MED8]
protein stability index (doa10∆): 3.26 ± 0.13
protein stability index (pdr5∆): 3.12 ± 0.13
protein stability index (san1∆): 3.06 ± 0.24
protein stability index (ubr1∆): 3.59 ± 0.14

KSAISNNFRESDIIILK [SIR4]
protein stability index (doa10∆): 3 ± 0.08
protein stability index (pdr5∆): 2.56 ± 0.065
protein stability index (san1∆): 2.96 ± 0.06
protein stability index (ubr1∆): 3.09 ± 0.059

AHIEKQSLDTIGGSDAA [RPO21]
protein stability index (doa10∆): 3.18 ± 0.097
protein stability index (pdr5∆): 3.25 ± 0.11
protein stability index (san1∆): 3.32 ± 0.12
protein stability index (ubr1∆): 2.95 ± 0.095

THHTDIIPIVDYAQLDH [ARP9]
protein stability index (doa10∆): 2.58 ± 0.051
protein stability index (pdr5∆): 2.39 ± 0.041
protein stability index (san1∆): 2.66 ± 0.039
protein stability index (ubr1∆): 2.61 ± 0.031

DQSNVQYYLSVLNQQLP [BRR2]
protein stability index (doa10∆): 2.96 ± 0.082
protein stability index (pdr5∆): 3.03 ± 0.072
protein stability index (san1∆): 3.02 ± 0.06
protein stability index (ubr1∆): 3.03 ± 0.06

GTIKKIEQFAMRRNSKI [POP5]
protein stability index (doa10∆): 2.79 ± 0.065
protein stability index (pdr5∆): 2.73 ± 0.05
protein stability index (san1∆): 2.6 ± 0.059
protein stability index (ubr1∆): 2.69 ± 0.039

KRTIRIKTQQHILPEVP [TAF14]
protein stability index (doa10∆): 1.92 ± 0.059
protein stability index (pdr5∆): 2.02 ± 0.049
protein stability index (san1∆): 2.2 ± 0.066
protein stability index (ubr1∆): 2.07 ± 0.063

KSMASAFGVSVAFLDND [RPN7]
protein stability index (doa10∆): 3.04 ± 0.091
protein stability index (pdr5∆): 3.08 ± 0.093
protein stability index (san1∆): 3.01 ± 0.066
protein stability index (ubr1∆): 3.24 ± 0.062

QFPEIAYPGKLICPQYG [CSL4]
protein stability index (doa10∆): 2.01 ± 0.054
protein stability index (pdr5∆): 2.11 ± 0.059
protein stability index (san1∆): 1.94 ± 0.1
protein stability index (ubr1∆): 2.17 ± 0.053

LKETVIPSLANNGNNST [POP6]
protein stability index (doa10∆): 2.41 ± 0.058
protein stability index (pdr5∆): 3.01 ± 0.065
protein stability index (san1∆): 2.54 ± 0.068
protein stability index (ubr1∆): 2.56 ± 0.05

DDFEEDEDEEDDDDYNA [RPC31]
protein stability index (pdr5∆): 3.31 ± 0.12
protein stability index (san1∆): 3.2 ± 0.09
protein stability index (ubr1∆): 3.46 ± 0.29

LMKKACYVGLLTAIPIL [SNU114]
protein stability index (doa10∆): 1.55 ± 0.035
protein stability index (pdr5∆): 1.45 ± 0.036
protein stability index (san1∆): 1.53 ± 0.054
protein stability index (ubr1∆): 1.66 ± 0.032

AYSPKQDEQKHNENENS [RPO21]
protein stability index (doa10∆): 2.65 ± 0.065
protein stability index (pdr5∆): 2.49 ± 0.072
protein stability index (san1∆): 2.57 ± 0.09
protein stability index (ubr1∆): 2.68 ± 0.061

QDDDFPLDDAGTIGWDL [MCD1]
protein stability index (doa10∆): 3.04 ± 0.08
protein stability index (pdr5∆): 3.25 ± 0.081
protein stability index (san1∆): 3.36 ± 0.06
protein stability index (ubr1∆): 3.06 ± 0.068

AAVIMRCKIYFFYLRIS [PCI8]
protein stability index (doa10∆): 1.33 ± 0.067
protein stability index (pdr5∆): 1.35 ± 0.06
protein stability index (san1∆): 1.15 ± 0.11
protein stability index (ubr1∆): 1.09 ± 0.088

DLLPNSFAKLVPCEGKD [SMC2]
protein stability index (doa10∆): 2.2 ± 0.04
protein stability index (pdr5∆): 2.73 ± 0.038
protein stability index (san1∆): 2.46 ± 0.053
protein stability index (ubr1∆): 2.45 ± 0.039

YGNRAEQFLETDSDFAK [SRP68]
protein stability index (doa10∆): 3.15 ± 0.12
protein stability index (pdr5∆): 2.99 ± 0.08
protein stability index (san1∆): 3.26 ± 0.083
protein stability index (ubr1∆): 3.23 ± 0.065

DKHLYHVLYKESKGNAF [RPL19A]
protein stability index (doa10∆): 3.56 ± 0.16
protein stability index (pdr5∆): 3.39 ± 0.089
protein stability index (san1∆): 2.96 ± 0.11
protein stability index (ubr1∆): 2.77 ± 0.084

VIITDGTLLREDDNTPA [YDL088C/ASM4]
protein stability index (doa10∆): 2.94 ± 0.077
protein stability index (pdr5∆): 2.9 ± 0.081
protein stability index (san1∆): 2.94 ± 0.056
protein stability index (ubr1∆): 3.01 ± 0.042

KPNQTIMVLDASIGQAA [SRP54]
protein stability index (doa10∆): 2.44 ± 0.095
protein stability index (pdr5∆): 2.65 ± 0.075
protein stability index (san1∆): 2.69 ± 0.07
protein stability index (ubr1∆): 2.64 ± 0.049

TFGKPEEEDSILSLEQS [YCS4]
protein stability index (doa10∆): 3.19 ± 0.091
protein stability index (pdr5∆): 3.19 ± 0.074
protein stability index (san1∆): 3.14 ± 0.057
protein stability index (ubr1∆): 3.13 ± 0.095

FLQHPDEEYPVKVKVSY [PRP8]
protein stability index (doa10∆): 3.24 ± 0.083
protein stability index (pdr5∆): 3.18 ± 0.11
protein stability index (san1∆): 3.21 ± 0.082
protein stability index (ubr1∆): 2.63 ± 0.063

LRNKIAGYTTHLMKRIQ [RPS17A]
protein stability index (doa10∆): 2.44 ± 0.12
protein stability index (pdr5∆): 3.19 ± 0.13
protein stability index (san1∆): 2.31 ± 0.12
protein stability index (ubr1∆): 2.99 ± 0.076
